Source: publication PMC2110644
Where two headings read alike, the source gives them in different places.

How the values were obtained:
Test in all cases: co-sedimentation
[1] = molecular target: actin (mol wt = 43,000), platelet (human (endogenous in platelets)) (UniProt P60709)
[2] = molecular target: actin (mol wt = 43,000), platelet (human (endogenous in platelets)) (UniProt P60709); remark: listed apart in the source
[3] = molecular target: actin (mol wt = 43,000), platelet (human (endogenous in platelets)) (UniProt P60709); remark: listed apart in the source
[4] = molecular target: actin (mol wt = 43,000), platelet (human (endogenous in platelets)) (UniProt P60709); remark: listed apart in the source

Chain of platelet membrane glycoprotein IIb (receptor) (P08514 32-1039): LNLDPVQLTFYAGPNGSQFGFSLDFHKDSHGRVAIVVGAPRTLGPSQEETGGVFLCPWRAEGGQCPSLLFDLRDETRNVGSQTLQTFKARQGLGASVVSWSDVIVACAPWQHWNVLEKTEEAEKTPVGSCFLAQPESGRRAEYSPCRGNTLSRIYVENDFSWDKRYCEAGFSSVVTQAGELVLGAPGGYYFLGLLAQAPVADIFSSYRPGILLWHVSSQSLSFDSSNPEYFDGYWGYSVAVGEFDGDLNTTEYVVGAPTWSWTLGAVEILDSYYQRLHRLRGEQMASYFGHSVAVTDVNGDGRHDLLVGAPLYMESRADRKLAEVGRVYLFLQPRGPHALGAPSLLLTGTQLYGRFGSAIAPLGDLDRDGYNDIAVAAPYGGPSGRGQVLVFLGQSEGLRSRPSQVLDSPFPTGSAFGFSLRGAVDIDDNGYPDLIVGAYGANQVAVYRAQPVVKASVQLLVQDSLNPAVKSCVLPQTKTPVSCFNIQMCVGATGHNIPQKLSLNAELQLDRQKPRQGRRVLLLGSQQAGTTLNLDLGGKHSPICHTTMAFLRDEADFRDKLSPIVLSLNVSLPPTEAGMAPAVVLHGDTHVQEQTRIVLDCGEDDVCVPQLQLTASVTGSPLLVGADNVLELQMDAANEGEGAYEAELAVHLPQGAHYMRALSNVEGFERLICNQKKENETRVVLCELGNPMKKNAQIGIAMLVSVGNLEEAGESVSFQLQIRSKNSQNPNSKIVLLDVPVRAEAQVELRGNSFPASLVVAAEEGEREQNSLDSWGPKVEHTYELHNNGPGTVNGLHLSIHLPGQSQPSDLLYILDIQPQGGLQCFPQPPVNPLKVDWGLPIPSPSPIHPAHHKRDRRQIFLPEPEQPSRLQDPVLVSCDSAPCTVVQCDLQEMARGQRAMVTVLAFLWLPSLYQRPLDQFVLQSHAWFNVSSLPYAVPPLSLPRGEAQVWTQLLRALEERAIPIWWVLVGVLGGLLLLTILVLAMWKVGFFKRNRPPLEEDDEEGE
Chain of platelet membrane glycoprotein III (P05106 27-788): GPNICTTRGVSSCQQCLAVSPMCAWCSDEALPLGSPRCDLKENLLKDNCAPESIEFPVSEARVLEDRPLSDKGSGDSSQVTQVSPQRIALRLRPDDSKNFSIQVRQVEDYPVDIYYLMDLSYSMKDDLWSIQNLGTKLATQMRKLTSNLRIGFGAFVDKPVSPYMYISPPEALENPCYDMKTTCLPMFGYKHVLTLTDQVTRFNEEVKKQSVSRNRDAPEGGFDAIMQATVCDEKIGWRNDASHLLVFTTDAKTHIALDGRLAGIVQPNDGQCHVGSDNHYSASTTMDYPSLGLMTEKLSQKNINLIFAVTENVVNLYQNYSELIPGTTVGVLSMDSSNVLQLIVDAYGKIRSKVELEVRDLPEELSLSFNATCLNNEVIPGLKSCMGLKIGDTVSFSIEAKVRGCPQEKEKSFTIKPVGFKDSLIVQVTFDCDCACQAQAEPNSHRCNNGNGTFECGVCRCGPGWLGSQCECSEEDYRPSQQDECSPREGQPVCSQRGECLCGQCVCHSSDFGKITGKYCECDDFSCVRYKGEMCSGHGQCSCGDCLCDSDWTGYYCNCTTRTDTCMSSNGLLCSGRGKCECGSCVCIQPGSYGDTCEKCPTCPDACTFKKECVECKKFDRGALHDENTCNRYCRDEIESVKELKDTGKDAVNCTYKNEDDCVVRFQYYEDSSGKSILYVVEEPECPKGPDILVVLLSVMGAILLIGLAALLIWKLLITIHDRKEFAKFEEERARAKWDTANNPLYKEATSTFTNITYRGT

Substance: platelet membrane glycoprotein III (from UniProt P05106 27-788) (receptor)
- percent of the glycoprotein in the Triton residue [1]: 2.4%
- percent of the glycoprotein in the Triton residue [2]: 14.3%
- percent of the glycoprotein in the Triton residue [3]: 3.4%

Substance: 255,000 protein (actin-binding protein), platelet (from UniProt P21333 1-2647) (natural protein)
- percent of the protein in the Triton residue [2]: 55.2%
- percent of the protein in the Triton residue [3]: 34.5%

Substance: platelet membrane glycoprotein IIb (receptor)
- percent of the glycoprotein in the Triton residue [4]: 3.7%
- percent of the glycoprotein in the Triton residue [1]: 5.4%
- percent of the glycoprotein in the Triton residue [2]: 26.1%
- percent of the glycoprotein in the Triton residue [3]: 7.2%
